Results as given in patent US20130058902A1, “DENDRITIC CELL SUBSETS FOR GENERATING INDUCED TOLEROGENIC DENDRITIC CELLS AND RELATED COMPOSITIONS AND METHODS” (Selecta Biosciences, Inc., priority 2011, published 2013).

Tested on: DCs in the spleen
Experiment: Expansion of spleen DCs in donor mice inoculated with FLT-3 ligand expressing melanoma cells
Type: in vivo, C57BL/6 mice
Settings: spleen of syngeneic donor mice inoculated 10 days earlier with FLT-3 ligand expressing melanoma cells
Source text: For each treatment day syngeneic donor mice were inoculated 10 days earlier with Fms-like tyrosine kinase 3 (FLT-3) ligand expressing melanoma cells s.s. (performed on days−10, 4, 18 in donor C57BL/6 age-matched mice). Flt3 ligand is a growth factor for DCs and allows for greater total number of DCs to be present in the spleen. This increased the number of DCs more than 10-fold and allowed for more cells to be available for in vitro treatment and in vivo administration.

B1: Flt3 ligand: growth factor for DCs, delivered by FLT-3 ligand expressing melanoma cells inoculated into donor mice (protein, UniProt P49772 27-232, looked up)
Fms-related tyrosine kinase 3 …: GTPDCYFSHSPISSNFKVKFRELTDHLLKDYPVTVAVNLQDEKHCKALWSLFLAQRWIEQLKTVAGSKMQTLLEDVNTEIHFVTSCTFQPLPECLRFVQTNISHLLKDTCTQLLALKPCIGKACQNFSRCLEVQCQPDSSTLLPPRSPIALEATELPEPRPRQLLLLLLLLLPLTLVLLAAAWGLRWQRARRRGELHPGVPLPSHP
increase of the number of DCs: more than 10 fold
